This note sets out measurements from article PMC3539201.

Experiment [1] deals with torsinA (endogenous, mouse fibroblasts) (mouse (endogenous in MFs)) (UniProt Q9ER39). Briefly: co-IP.
Experiment [2] deals with YFP-human-nesprin-3 (human) (UniProt Q6ZMZ3). The experiment is described as follows: co-IP.
YFP-human-nesprin-3 (human), sequence (Q6ZMZ3 whole entry): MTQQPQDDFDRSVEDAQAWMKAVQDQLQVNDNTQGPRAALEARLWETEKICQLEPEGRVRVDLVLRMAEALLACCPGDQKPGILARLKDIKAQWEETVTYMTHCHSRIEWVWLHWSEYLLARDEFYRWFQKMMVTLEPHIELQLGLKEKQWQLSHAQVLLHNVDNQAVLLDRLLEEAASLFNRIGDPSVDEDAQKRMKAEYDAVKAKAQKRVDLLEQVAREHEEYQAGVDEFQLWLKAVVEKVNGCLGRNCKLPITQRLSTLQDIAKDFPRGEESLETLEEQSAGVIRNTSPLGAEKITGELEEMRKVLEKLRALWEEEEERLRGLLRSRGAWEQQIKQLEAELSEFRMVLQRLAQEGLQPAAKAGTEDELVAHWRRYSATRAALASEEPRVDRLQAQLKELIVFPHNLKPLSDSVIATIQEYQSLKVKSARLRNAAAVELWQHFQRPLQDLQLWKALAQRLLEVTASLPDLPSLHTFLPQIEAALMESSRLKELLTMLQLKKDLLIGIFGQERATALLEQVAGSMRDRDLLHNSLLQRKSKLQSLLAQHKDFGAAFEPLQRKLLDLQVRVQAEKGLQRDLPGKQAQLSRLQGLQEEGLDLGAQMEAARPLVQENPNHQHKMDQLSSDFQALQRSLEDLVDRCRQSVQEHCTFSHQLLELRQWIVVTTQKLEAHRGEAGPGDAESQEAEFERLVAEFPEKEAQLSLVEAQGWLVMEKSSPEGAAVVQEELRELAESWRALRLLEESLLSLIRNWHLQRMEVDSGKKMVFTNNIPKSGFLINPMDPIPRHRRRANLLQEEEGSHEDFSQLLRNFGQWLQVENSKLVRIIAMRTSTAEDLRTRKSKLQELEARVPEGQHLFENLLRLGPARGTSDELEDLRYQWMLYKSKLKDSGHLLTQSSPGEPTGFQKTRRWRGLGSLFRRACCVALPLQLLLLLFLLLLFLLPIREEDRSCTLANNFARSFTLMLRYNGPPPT

torsinAΔE (human, expressed in 293T cells), sequence (O14656 21-332, stated change not applied): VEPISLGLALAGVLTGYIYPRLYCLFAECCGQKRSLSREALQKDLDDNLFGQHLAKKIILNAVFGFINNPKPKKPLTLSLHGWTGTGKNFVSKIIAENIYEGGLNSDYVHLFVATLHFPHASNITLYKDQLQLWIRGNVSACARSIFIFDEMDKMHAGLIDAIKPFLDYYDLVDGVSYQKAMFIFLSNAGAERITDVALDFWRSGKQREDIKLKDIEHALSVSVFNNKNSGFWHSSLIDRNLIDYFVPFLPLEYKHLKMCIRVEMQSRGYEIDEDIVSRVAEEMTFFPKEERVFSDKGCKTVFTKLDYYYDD
torsinA (endogenous, mouse fibroblasts) (mouse (endogenous in MFs)), sequence (Q9ER39 21-333): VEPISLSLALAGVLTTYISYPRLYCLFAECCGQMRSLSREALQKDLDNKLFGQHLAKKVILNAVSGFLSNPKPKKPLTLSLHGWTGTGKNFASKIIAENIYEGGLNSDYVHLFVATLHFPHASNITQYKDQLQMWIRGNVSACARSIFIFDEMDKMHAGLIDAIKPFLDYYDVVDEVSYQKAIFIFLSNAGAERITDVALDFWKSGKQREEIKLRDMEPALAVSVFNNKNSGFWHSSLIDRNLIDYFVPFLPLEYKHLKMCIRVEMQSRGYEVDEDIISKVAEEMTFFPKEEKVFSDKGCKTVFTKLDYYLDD

In experiment [1], “plectin (endogenous, mouse fibroblasts), Q9QXS1 1-4691” gave a percentage immunoprecipitated from lysates of 7%. In the case of “torsinAΔE (human, expressed in 293T cells) (from UniProt O14656 21-332) (natural protein)”, in experiment [2], the percentage immunoprecipitated with YFP-nesprin-3 in the presence of ATP amounted to 25%.
